Experimental data taken from paper PMC8651787, “Tankyrase-1-mediated degradation of Golgin45 regulates glycosyltransferase trafficking and protein glycosylation in Rab2-GTP-dependent manner” (Communications Biology, 2021).
Changes are numbered by the printed parent chain. Names may count otherwise.

T1: TNKS1-Arc1 (183–335aa) (human, UniProt O95271 183-335)
T1 construct: human Tankyrase-1 (TNKS1), ARC (Ankyrin Repeat Cluster) domain 1, residues 183-335; pET24b plasmid; also called Arc I; ArcI; source: E. coli BL21 (DE3), purified (Ni-NTA Agarose); not shown: His6, C-terminal, kept
T1 sequence (looked up): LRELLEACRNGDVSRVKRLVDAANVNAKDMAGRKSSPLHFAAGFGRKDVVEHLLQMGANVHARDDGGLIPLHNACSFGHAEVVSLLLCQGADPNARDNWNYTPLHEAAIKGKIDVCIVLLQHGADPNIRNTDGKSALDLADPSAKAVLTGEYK

B1: GST-Golgin45 N70 S49D (domain or fragment, human, UniProt Q9H2G9 1-70, looked up)
chain: MTTKNLETKVTVTSSPIRGAGDGMETEEPPKSVEVTSGVQSRKHHSLQDPWKKAVPSESPGVLQLGKMLT
notes: Golgin45 (BLZF1), N-terminal residues 1-70, phospho-mimicking S49D in the Cdc2 consensus 49SPWK52; also called GST-Golgin45 S49D mutant; source: E. coli BL21 (DE3), purified (Glutathione HiCap Matrix)
B2: GST-Golgin45 N-terminal domain (amino acid 1–70) (domain or fragment, human, UniProt Q9H2G9 1-70, looked up)
chain: B1 chain with D49S
notes: Golgin45 (BLZF1), N-terminal residues 1-70; pGEX-6p-1 plasmid; also called GST-Golgin45 N70 wt; Golgin45 N70 WT; source: E. coli BL21 (DE3), purified (Glutathione HiCap Matrix)
B3: GST-Golgin45 N70 S15D (domain or fragment, human, UniProt Q9H2G9 1-70, looked up)
chain: B1 chain with S15D, D49S
notes: Golgin45 (BLZF1), N-terminal residues 1-70, phospho-mimicking S15D in the Cdc2 consensus 15SPIR18; also called S15D mutated GST-Golgin45; Golgin45 S15D mutant; source: E. coli BL21 (DE3), purified (Glutathione HiCap Matrix)

Experiments:
TNKS1-Arc1 (183–335aa) [1] = target: T1, TNKS1-Arc1 (183–335aa); assay: pull-down; 150 μg GST fusion protein on Glutathione-Sepharose 4B beads; 0.1 μM prey protein; 25 mM Hepes pH 7.4, 150 mM NaOAc, 0.2% Triton, 1 mM DTT; 4 °C, 2 h; western blot; settings: both partners purified
TNKS1-Arc1 (183–335aa) [2] = target: T1, TNKS1-Arc1 (183–335aa); assay: BLI; Octet RED96; GST fusion proteins loaded on GST biosensors at 10 ug/ml; TNKS1-Arc1 as analyte (0.16-4.56 μM); 25 °C; 25 mM Hepes pH 7.4, 150 mM NaOAc, 0.2% Triton, 1 mM DTT; steady-state fit; settings: both partners purified

Binder | binding result (TNKS1-Arc1 (183–335aa) [1]) | Kd (TNKS1-Arc1 (183–335aa) [2]) [nM]
B1 | binds | 
B2 |  | ~1460
B3 |  | 2780 ± 80
